One molecule from PMC7935953, “Insights on autophagosome–lysosome tethering from structural and biochemical characterization of human autophagy factor EPG5” (Communications Biology, 2021) can be followed below.

The target of this assay is T1, GABARAP (Homo sapiens, UniProt O95166).
T1 construct: made in house; host or cells: E. coli (T7 Express)
The assay is described as follows: GST pull-down of hEPG5 (wild type and mutants) with GST-GABARAP bait. The settings on record: anti-FLAG western blot, compared to wild-type hEPG5, triplicates. The class given is binding. The procedure: For GST pull-down analysis, N-terminally GST-tagged LC3 and GABARAP proteins were expressed in Escherichia coli (T7 Express) cells. The cells were induced with 1 mM isopropyl β-d-1-thiogalacpyranoside [IPTG] for 4 h at 25 °C. The cell pellets were resuspended in 25 mL buffer E (50 mM Tris pH 8.0, 150 mM NaCl, and 1 mM PMSF). Cells were then sonicated for four cycles consisting of 1 min sonication followed by 2 min cooling on ice, with duty cycle set to 50% and output control at 5. Cell lysate was then centrifuged at 20,950 × g for 40 min at 4 °C. Supernatant was incubated for 1 h at 4 °C with glutathione resin (50% slurry, GenScript) pre-equilibrated with buffer E, while gently inverting. Resin was returned to the column and washed with buffer E. Proteins were eluted with 10 mM reduced glutathione (GoldBio) in buffer F (50 mM Tris pH 8.0, 150 mM NaCl). Free glutathione was removed by dialysis in buffer F and protein concentration was measured by spectrophotometry (NanoDrop, Thermo Scientific). Glycerol was added to a final concentration of 5%, then solutions were aliquoted and stored at −70 °C.
Pulldowns were performed with a 50 µL slurry of glutathione resin (50% slurry, GenScript). […]
All experiments were performed in triplicates. […] Intensity of His-FLAG-hEPG5, GST (control), and GST-LC3/GABARAP subfamily proteins in pull-down assays was quantified using Bio-Rad Image Lab Software v6.0. […]
(In western blotting, separated proteins are transferred to a membrane and probed.)

T1 sequence (O95166 whole entry): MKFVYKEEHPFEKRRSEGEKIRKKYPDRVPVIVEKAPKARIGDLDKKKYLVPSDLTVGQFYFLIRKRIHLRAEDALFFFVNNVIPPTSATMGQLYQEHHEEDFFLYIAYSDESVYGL

B1: hEPG5^Δ1–1198: hEPG5 truncation mutant which excludes the entire N-terminal region (protein)
chain: YHCDRSLLSSLVSWIVAGNITPSFVEGLATPTQVWFAWTVLNMESIFEEDSQLRRVIEGELVINSAFTPDQALKKAQTQLKLPIVPSLQRLLIYRWAHQALVTPSDHPLLPLIWQKFFLLYLHRPGPQYGLPIDGCIGRRFFQSPAHINLLKEMKRRLTEVADFHHAASKALRVPAEGSEGLPESHSGTPGYLTSPELHKELVRLFNVYILWLEDENFQKGDTYIPSLPKHYDIHRLAKVMQNQQDLWMEYLNMERIYHEFQETVGLWTQAKLESHSTPCSLSVQLDFTDPLLAKERVLSNLRKHEAPQPPLALHPTKPPVPVISSAVLLSQKDATQLVCTDLNLLQQQARTAALRESQQVALDGELLDTMPKQYVNREEQTTLHLECRGSSGKKCQGAAVVTVQFEGMHKNEAISQQLHVLRKEVKQLQAEAAKPPSLNIVEAAVHAENLITALVNAYKLQPTPGIQKVGISLFFTIVDYVSDETQRHPPTRQFFTSCIEILGQVFISGIKSECRKVLETILKNSRLCSLLSPFFTPNAAPAEFIQLYEQVVKFLSEDNSDMIFMLLTKFDLKQWLSATKPPLSDRTRLLESIHLALTAWGLEPDEDILMPFNLFCKHWTYLLLYQFPDQYSDILRLLMQSSAEQLLSPECWKATLRALGCCAPSCQQGAASTEGAVLPSSSDALLSDKQVMETIQWLSDFFYKLRLSKMDFKSFGLFSKWSPYMADVKTFLGYLVKRLIDLEMTCLAQDPTASRKTVLKSLHSVIIQLFKPWILVLEDNESSQQRHYPWLESDTVVASSIVQLFTDCIDSLHESFKDKLLPGDAGALWLHLMHYCEACTAPKMPEFILYAFHSTYRKLPWKDLHPDQMLMEAFFKVERGSPKSCFLFLGSVLCEVNWVSVLSDAWNSSPHPETRSMIVCLLFMMILLAKEVQLVDQTDSPLLSLLGQTSSLSWHLVDIVSYQSVLSYFSSHYPPSIILAKESYAELIMKLLKVSAGLSIPTDSQKHLDAVPKCQAFTHQMVQFLSTLEQNGKITLAVLEQEMSKLLDDIIVFNPPDMDSQTRHMALSSLFMEVLMMMNNATIPTAEFLRGSIRTWIGQKMHGLVVLPLLTAACQSLASVRHMAETTEACITAYFKESPLNQNSGWGPILVSLQVPELTMEEFLQECLTLGSYLTLYVYLLQCLNSEQTLRNEMKVLLILSKWLEQVYPSSVEEEAKLFLWWHQVLQLSLIQTEQNDSVLTESVIRILLLVQSRQNLVAEERLSSGILGAIGFGRKSPLSNRFRVVARSMAAFLSVQVPMEDQIRLRPGSELHLTPKAQQALNALESMASSKQYVEYQDQILQATQFIRHPGHCLQDGKSFLALLVNCLYPEVHYLDHIR
modifications: left off: His, end not stated, kept | FLAG, end not stated, kept
notes: hEPG5 truncation mutant which excludes the entire N-terminal region
B1: the “binding to GABARAP in GST pull-down, in words” value is on record as “but not hEPG5^Δ1–1198 was pulled down by GABARAP”.
